Results on one substance are retold here after doi:10.1101/619858.

In this experiment the target is α-Synuclein (α-Syn), wild type (UniProt P37840).

With “α-Synuclein (α-Syn), wild type (from UniProt P37840 1-140) (natural protein)”, the percent of the protein as fibrils (day 5) is 2% and the percent of the protein as oligomers (day 5) was found to be 8%.
